# Results as given in the supplement of paper PMC9428881.
# ± gives the standard error.
# Test: background-corrected fluorescence of 3'-dye-labeled ssDNA relative to brightest sequence (3'-GCGCG) (fraction); higher = brighter dye fluorescence (less quenching)
# Procedure, shortened: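 By light-directed phosphoramidite synthesis, single-stranded DNA ending in a 3' Cy3 or Cy5 dye beside each of 1024 permuted pentamers was built on glass slides. Scanning at 532 or 635 nm took place before and after overnight ethylenediamine/ethanol deprotection. Data are means of 10 features per array over at least 3 syntheses. Fluorescence is corrected for unlabeled-oligo background and scaled to the brightest sequence.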
sequence,measurement,setting,value
TTTTTTCAGCATCATGATCATTTTTTTTTTTTTTTGTGCG [GCGTG],background-corrected fluorescence,dye: Cy3 (3' terminal),0.568 ± 0.056
same,background-corrected fluorescence,dye: Cy5 (3' terminal),0.499 ± 0.028
TTTTTTCAGCATCATGATGATTTTTTTTTTTTTTTGTGCC [CCGTG],background-corrected fluorescence,dye: Cy3 (3' terminal),0.438 ± 0.022
same,background-corrected fluorescence,dye: Cy5 (3' terminal),0.332 ± 0.028
TTTTTTCAGCATCATGATGCTTTTTTTTTTTTTTTGTGCA [ACGTG],background-corrected fluorescence,dye: Cy3 (3' terminal),0.589 ± 0.02
same,background-corrected fluorescence,dye: Cy5 (3' terminal),0.483 ± 0.028
TTTTTTCAGCATCATGCGCATTTTTTTTTTTTTTTGTGAT [TAGTG],background-corrected fluorescence,dye: Cy3 (3' terminal),0.548 ± 0.032
same,background-corrected fluorescence,dye: Cy5 (3' terminal),0.429 ± 0.021
TTTTTTCAGCATCATGCTCATTTTTTTTTTTTTTTGTGAG [GAGTG],background-corrected fluorescence,dye: Cy3 (3' terminal),0.619 ± 0.028
same,background-corrected fluorescence,dye: Cy5 (3' terminal),0.472 ± 0.057
TTTTTTCAGCATCATGCTGATTTTTTTTTTTTTTTGTGAC [CAGTG],background-corrected fluorescence,dye: Cy3 (3' terminal),0.483 ± 0.02
same,background-corrected fluorescence,dye: Cy5 (3' terminal),0.387 ± 0.064
TTTTTTCAGCATCATGCTGCTTTTTTTTTTTTTTTGTGAA [AAGTG],background-corrected fluorescence,dye: Cy3 (3' terminal),0.607 ± 0.023
same,background-corrected fluorescence,dye: Cy5 (3' terminal),0.511 ± 0.032
TTTTTTCAGCATGAGCAGCATTTTTTTTTTTTTTTGTCTT [TTCTG],background-corrected fluorescence,dye: Cy3 (3' terminal),0.505 ± 0.017
same,background-corrected fluorescence,dye: Cy5 (3' terminal),0.364 ± 0.03
TTTTTTCAGCATGAGCATCATTTTTTTTTTTTTTTGTCTG,background-corrected fluorescence,dye: Cy3 (3' terminal),0.54 ± 0.031
same,background-corrected fluorescence,dye: Cy5 (3' terminal),0.387 ± 0.025
TTTTTTCAGCATGAGCATGATTTTTTTTTTTTTTTGTCTC [CTCTG],background-corrected fluorescence,dye: Cy3 (3' terminal),0.393 ± 0.034
same,background-corrected fluorescence,dye: Cy5 (3' terminal),0.33 ± 0.043
TTTTTTCAGCATGAGCATGCTTTTTTTTTTTTTTTGTCTA [ATCTG],background-corrected fluorescence,dye: Cy3 (3' terminal),0.539 ± 0.01
same,background-corrected fluorescence,dye: Cy5 (3' terminal),0.381 ± 0.021
TTTTTTCAGCATGATCAGCATTTTTTTTTTTTTTTGTCGT [TGCTG],background-corrected fluorescence,dye: Cy3 (3' terminal),0.581 ± 0.021
same,background-corrected fluorescence,dye: Cy5 (3' terminal),0.451 ± 0.032
TTTTTTCAGCATGATCATCATTTTTTTTTTTTTTTGTCGG [GGCTG],background-corrected fluorescence,dye: Cy3 (3' terminal),0.666 ± 0.025
same,background-corrected fluorescence,dye: Cy5 (3' terminal),0.506 ± 0.027
TTTTTTCAGCATGATCATGATTTTTTTTTTTTTTTGTCGC [CGCTG],background-corrected fluorescence,dye: Cy3 (3' terminal),0.556 ± 0.034
same,background-corrected fluorescence,dye: Cy5 (3' terminal),0.444 ± 0.032
TTTTTTCAGCATGATCATGCTTTTTTTTTTTTTTTGTCGA [AGCTG],background-corrected fluorescence,dye: Cy3 (3' terminal),0.645 ± 0.017
same,background-corrected fluorescence,dye: Cy5 (3' terminal),0.548 ± 0.034
TTTTTTCAGCATGATGAGCATTTTTTTTTTTTTTTGTCCT [TCCTG],background-corrected fluorescence,dye: Cy3 (3' terminal),0.464 ± 0.02
same,background-corrected fluorescence,dye: Cy5 (3' terminal),0.346 ± 0.024
TTTTTTCAGCATGATGATCATTTTTTTTTTTTTTTGTCCG [GCCTG],background-corrected fluorescence,dye: Cy3 (3' terminal),0.54 ± 0.027
same,background-corrected fluorescence,dye: Cy5 (3' terminal),0.429 ± 0.081
